{"source": "patent US20220228157A1", "about": "“GENE EDITING IN DIVERSE BACTERIA” (priority 2019, published 2022)", "molecules": {"B1": {"name": "Redβ: Redβ SSAP from Enterobacteria phage λ, SEQ ID NO: 474 (protein)", "chain": "MSTALATLAGKLAERVGMDSVDPQELITTLRQTAFKCDASDAQFIALLIVANQYGLNPWTKEIYAFPDKQNGIVPVVGVDGWSRIINENQQFDGMDFEQDNESCTCRIYRKDRNHPICVTEWMDECRREPFKTREGREITGPWQSHPKRMLRHKAMIQCARLAFGFAGIYDKDEAERIVENTAYTAERQPERDITPVNDETMQEINTLLIALDKTWDDDLLPLCSQIFRRDIRASSELTQAEAVKALGFLKQKATEQKVAA", "modifications": "Bacteriophage Lambda"}, "B2": {"name": "PapRecT: SSAP from Pseudomonas aeruginosa, SEQ ID NO: 24, UniParc ID: UPI0001E9E6CB (protein, listed as Pseudomonas aeruginosa)", "chain": "MGTALTPLLTKFATRYEMGTTPEEVANTLKQTCFKGQVNDSQMVALLIVADQYKLNPFTKELYAFPDKNNGIVPVVGVDGWARIINENPQFDGMEFSMDQQGTECTCKIYRKDRSHAISATEYMAECKRNTQPWQSHPRRMLRHKAMIQCARLAFGFAGIYDQDEAERIVERDVTPAEQYEDVSEAICLIKDSPTMEDLQAAFSNAWKAYKTKGARDQLTAAKDQRKKELLDAPIDVEFEETGDDRAA"}, "B3": {"name": "CspRecT: RecT SSAP (UniParc ID: UPI0001837D7F) from a phage of Collinsella stercoris (protein)", "chain": "MNQIVKFTDDSGLAVQVTPDDVRRYICENATEKEVGLFLQLCQTQRLNPFVKDAYLVKYGGAPASMITSYQVFNRRACRDANYDGIKSGVVVLRDGDVVHKRGAACYKKAGEELIGGWAEVRFKDGRETAYAEVALDDYSTGKSNWAKMPGVMIEKCAKAAAWRLAFPDTFQGMYAAEEMDQAQQPEQVRAQAEQPVDLQPIRELFKPYCEHFGITPAEGMTAVCGAVGAEGMHSMTEQQARRARAWMEEEMAAPAVEAEYEVVDEGEVF", "modifications": "Collinsella stercoris DSM 13279"}}, "key": {"[1]": {"system": "90 bp oligos pre-coated with SSB", "assay": "Oligonucleotide annealing and quenching in vitro", "format": "biochemical", "from_the_text": "It was first whether two 90 bp oligos could anneal if they were pre-coated with SSB. SSBs was purified from E. coli (gram-negative), where most recombineering work has been performed, and L. lactis (gram-positive), a lactic acid bacterium phylogenetically distantly related to E. coli. […] It was next tested capacity of a phage RecT protein to overcome this SSB-mediated inhibition of annealing. Thus, Redβ, which is not broadly portable, but mediates efficient oligonucleotide annealing in E. coli, was purified. […] These preliminary results gave us an indication that while bacterial SSBs inhibit oligonucleotide annealing in vitro, RecTs overcome the inhibitory effect in an SSB-specific manner.\nFluorescent (tolC-r.null.mut-3′FAM) and quenching (tolC-f.null.mut-5′IBFQ) oligos were ordered from Integrated DNA Technologies. Unless otherwise indicated, 50 nM of each oligo was incubated in 25 mM TRIS-HCl pH 7.4 with 1.0 μM Ec_SSB or Ll_SSB at 30° C. for 30 minutes. 100 μl of each oligo mixture were then combined into a 96-well clear-bottom black assay plate (Costar), incubated a further 60 minutes at 30° C., and annealing was tracked on a Synergy H4 microplate reader (BioTek) with fluorescence excitation set to 495 nm and emission set to 520 nm. After 60 minutes, 20 μl of a solution with or without 25 μM Redβ and containing 100 mM MgCl2 was added to achieve a final reaction concentration of 2.5 μM Redβ and 10 mM MgCl2. The annealing was then tracked over 10 hours in a the Synergy H4 microplate reader with the setting indicated above."}, "E. coli": {"system": "E. coli", "assay": "lacZ recombineering assay (blue/white screening)", "format": "cell-based, Escherichia coli", "conditions": "for Editing efficiency, 18-bp consecutive mismatches into lacZ / Editing efficiency, 30-bp consecutive mismatches into lacZ: wild type E. coli MG1655", "procedure": "Top individual SSAPs (SEQ ID NO: 157 and SEQ ID NO: 24, using Redβ as a control) were expressed in E. coli from a lambda pL promoter. The mutational profile of edits are shown in FIG. 5, including the efficiency of introducing 18-nucleotide (NT) and 30-NT mismatches. Efficiency was measured by disruption of LacZ, plating on X-gal, and counting the number of blue vs. white colonies. In contrast to FIG. 1A, a high over-performance by the SSAP (SEQ ID NO: 157) alone was observed when it was driven off of a more efficient promoter.\nTo maximize the phylogenetic reach and applicability of these new tools, CspRecT was characterized, alongside Redβ and PapRecT, subcloned into the pORTMAGE plasmid system (FIGS. 10A-10B, Addgene accession: #120418). This plasmid contains a broad-host RSF1010 origin of replication, establishes tight regulation of protein expression with an m-toluic-acid inducible expression system, and disables MMR by transient overexpression of a dominant-negative mutant of E. coli MutL (MutL E32K) (Nyerges et al., Proc. Natl. Acad. Sci. U.S.A. 113, 2502-2507 (2016)), which makes it possible to establish high-efficiency editing without modification of the host genome. […] This pORTMAGE plasmid expressing CspRecT was referred to as pORTMAGE-Ec1 (Addgene).\nOligos were designed to introduce I) premature STOP codons into lacZ for E. coli, K. pneumoniae, and C. freundii, or II) RpsL K43→R; GyrA T83→I; ParC S83→L; RpoB D521→V, or a premature STOP codon into nfxB for P. aeruginosa. Oligo-mediated recombineering was performed as described above on all bacterial strains. After recovery overnight, cells were plated at empirically-determined dilutions to a density of 200-500 colonies per plate. In the case of LacZ screening, plating was assayed on MacConkey agar plates or on X-Gal/IPTG LB^L agar plates in the case of K. pneumoniae. In the case of selective antibiotic screening, cultures were plated onto both selective and non-selective plates. Selective antibiotic concentrations used were the same as those described for the selective testing above, except that in P. aeruginosa 100 μg/ml STR and 1.5 μg/ml CIP were used unless otherwise noted. Variants that were resistant to multiple antibiotics were selected on LB^L agar plates that contained the combination of all corresponding antibiotics. Non-selective plates were antibiotic-free LB^L agar plates. In all cases, allelic-replacement frequencies were calculated by dividing the number of recombinant CFUs by the number of total CFUs. Plasmid maintenance was ensured by supplementing all media and agar plates with either KAN (50 μg/ml) or GEN (20 μg/ml). Minimum Inhibitory Concentration (MIC) Measurement in P. aeruginosa"}, "E. coli MG1655": {"system": "E. coli MG1655", "assay": "Single-cycle multiplex genome editing with oligo pools, read out by NGS", "format": "cell-based, Escherichia coli", "conditions": "for Average editing efficiency at all loci: 19 simultaneous edits", "procedure": "CspRecT was then tested at a variety of more complex genome editing tasks. For longer strings of consecutive mismatches, which are lower efficiency events, CspRecT was again about twice as efficient as Redβ. […] To further investigate the performance of CspRecT at complex, highly multiplexed genome editing tasks, a set of 20 oligos spaced evenly around the E. coli genome was designed, each of which incorporates a single-nucleotide synonymous mutation at a non-essential gene. Next, while expressing Redβ, PapRecT, and CspRecT separately from the corresponding pORTMAGE plasmid, a single cycle of genome editing was performed with equimolar pools of 1, 5, 10, 15, and 20 oligos and assayed editing efficiency at each locus by PCR amplification coupled to targeted next generation sequencing (NGS). […] For instance, when making 19 simultaneous edits (one oligo from the pool of 20 could not be read out due to inconsistencies in allelic amplification), CspRecT averaged 5.1% editing efficiency at all loci, whereas Redβ and PapRecT averaged only 0.40% and 0.43%. Importantly, despite keeping total oligo concentration fixed across all pools, aggregate editing efficiency increased as more oligos were present in each pool. For instance, when using CspRecT with a 19-oligo pool, aggregate editing efficiency was nearly 100%, implying that across the total recovered population of E. coli there averaged one edit per cell.\nTo measure single locus editing, a recombineering cycle was run with an oligo that confers a single base pair non-coding mismatch in a non-essential gene. The allele was then amplified by PCR and editing efficiency was measured by NGS as described above. To test multiplex editing, the concentration of oligo was held fixed (10 μM in the final electroporation mixture), but the total number of oligos in the mixture was varied. Pools of oligos to test editing at 5, 10, 15, or 20 alleles simultaneously were designed so as to space the edits relatively evenly around the genome. The 5-oligo pool contained oligo #'s 3,7,11,15,17, the 10-oligo pool added oligo #'s 1,5,9,13,19, the 15-oligo pool added oligo #'s 4,8,12,16,18, and the final 20-oligo pool contained silent mismatch MAGE oligos."}, "[2]": {"conditions": "wild-type E. coli MG1655, pORTMAGE plasmid"}}, "data": [{"molecule": "B1", "values": [{"measurement": "Ability to overcome SSB-mediated inhibition of annealing", "setting": "[1]", "value": "overcame the inhibitory effect of EcSSB but not L1SSB"}, {"measurement": "Editing efficiency, 18-bp consecutive mismatches into lacZ", "setting": "E. coli", "value": 3, "unit": "%"}, {"measurement": "Editing efficiency, 30-bp consecutive mismatches into lacZ", "setting": "E. coli", "value": 1, "unit": "%"}, {"measurement": "Average editing efficiency at all loci", "setting": "E. coli MG1655", "value": 0.40, "unit": "%"}]}, {"molecule": "B2", "values": [{"measurement": "Annealing kinetics in vitro", "setting": "[1]", "value": "improved annealing kinetics in vitro"}, {"measurement": "Average editing efficiency at all loci", "setting": "E. coli MG1655", "value": 0.43, "unit": "%"}]}, {"molecule": "B3", "values": [{"measurement": "Editing efficiency relative to other SSAPs", "setting": "E. coli; E. coli, lambda pL promoter", "value": "about double the efficiency of Redβ or SSAP SEQ ID NO: 24"}, {"measurement": "Editing efficiency, 18-bp consecutive mismatches into lacZ", "setting": "E. coli", "value": 6, "unit": "%"}, {"measurement": "Editing efficiency, 30-bp consecutive mismatches into lacZ", "setting": "E. coli", "value": 3, "unit": "%"}, {"measurement": "Editing efficiency, average over single-base mismatches", "setting": "E. coli; [2]", "value": 43, "unit": "%"}, {"measurement": "Editing efficiency, various single-base mismatches", "setting": "E. coli; [2]", "value": "35-51%"}, {"measurement": "Aggregate editing efficiency", "setting": "E. coli MG1655; 19-oligo pool", "value": "~100", "unit": "%"}, {"measurement": "Average editing efficiency at all loci", "setting": "E. coli MG1655", "value": 5.1, "unit": "%"}]}]}
